According to patent publication US20240376163:

System: T1, biotin-p-CABIN1-L-1 (phosphorylated CABIN1-L-1)
T1 sequence: AAAMAGFPPEITVTPPTP
Test: SPR (Biacore T200), biotin-labeled peptide captured on SA chip, His-tagged CNA at 1.25, 2.5, 5 and 10 nM, 25° C.

Substance “His-tagged CNA (purified; isoform not stated)” has a fold increase of binding affinity (phosphorylated vs unphosphorylated CABIN1 peptide) of 3 fold.
